Data on eleven molecules can be found in patent US20260159579A1 (Pfizer, published 2026).

The Kd is the concentration at which binding is half-saturated. A low value points to a tighter complex. Usually koff stands for the rate constant with which the complex falls apart. The low end stands for slow dissociation, the high end for fast dissociation. Usually kon stands for the rate constant with which the complex forms.

Where “and” joins values, the source holds several entries; their conditions need not be identical. Equal entries are not always repeated.

The target of test [1] is T1, Mouse Fc-human GDF15 (Mu IgG1Fc_Fxa_Hu GDF15) (human).
T1 construct: Whole entry is the fusion: mouse IgG1 Fc, FXa site and linker, mature human GDF15; described as dimeric; also called Murine dimeric IgG1 Fc-human GDF-15 with FXa cleavage site; control human GDF15
T1 chain: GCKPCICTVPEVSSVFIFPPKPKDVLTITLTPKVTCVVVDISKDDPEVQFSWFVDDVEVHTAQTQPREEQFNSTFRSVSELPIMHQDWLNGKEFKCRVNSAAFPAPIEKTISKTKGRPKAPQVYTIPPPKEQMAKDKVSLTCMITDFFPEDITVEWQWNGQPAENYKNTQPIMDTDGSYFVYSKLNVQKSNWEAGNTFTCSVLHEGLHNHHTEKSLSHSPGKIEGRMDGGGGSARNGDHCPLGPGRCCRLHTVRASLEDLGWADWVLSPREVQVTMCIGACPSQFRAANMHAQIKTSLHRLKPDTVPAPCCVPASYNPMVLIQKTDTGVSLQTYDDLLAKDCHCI
Kind of test: SPR BIAcore T200, 37C; Fc-GDF15 captured, IgG as analyte; average of runs. The protocol: (§1) Mouse Fc-human GDF15 (Mu IgG1Fc_Fxa_Hu GDF15; SEQ ID NO:2), Mouse Fc-mouse GDF15 (Mu IgG1Fc_Fxa_Mu GDF15; SEQ ID NO:5) and Mouse Fc-cynomolgus monkey GDF15 (Mu IgG1Fc_Fxa_Cyno GDF15; SEQ ID NO:4) were captured onto three different flow cells of a CM4 sensorchip (catalogue number BR100534, GE Healthcare) surface using the Mouse Antibody Capture Kit (BR100838, GE Healthcare) according to the manufacturer's protocol. The running and sample bufferwas 10 mM HEPES pH 7.4, 0.15M NaCl, 3 mM EDTA, 0.05% P-20 (HBS-EP+). The final capture levels of Mu IgG1Fc_Fxa_Hu GDF15, Mu IgG1Fc_Fxa_Mu GDF15 and Mu IgG1Fc_Fxa_Cyno GDF15 were 40 resonance units (RU), 32 RU and 25 RU respectively. Flow cell 1 was used as a reference flow cell. […] The dissociation was monitored for 2.8 hours and the surface was regenerated with 10 mM Glycine pH 1.7. Binding affinities and rate constants were determined for murine and cynomolgus monkey GDF15 by fitting the resulting sensorgram data to a 1:1 Langmuir model in BIAcore T200 Evaluation software version 2.0 (GE Healthcare).
(§2) Additionally, the binding of clone GDF15_001 to cynomolgus monkey and mouse GDF15 was measured using above mentioned BIAcore assay (Table 7).

The target in test [2] is T1, Mouse Fc-human GDF15 (Mu IgG1Fc_Fxa_Hu …). Kind of test: SPR BIAcore T200, 37C; Fc-GDF15 captured, IgG as analyte. The procedure:
as §1, §2
A general note: Surface plasmon resonance follows binding to a sensor surface in real time, without labels.

The target is the same in test [3]. Kind of test: SPR BIAcore T200; summary sentence for the clones of Table 6. The protocol: as §1, §2

B1: GDF15_0297 (antibody, mouse IgG1, kappa, V domains shown)
VH: QVQLQQPGAELVKPGASVKMSCKASGYPFEGWYIHWVKQRPGQGLEWMGWNNPRTGLTNHAQKFQGKVTMTRDTSSSTAYMQLSSLTSEDSAVYYCARGVGADAAFDIWGQGTTLTVSS
VL: DIVMTQSPSSLSVSAGEKVTMSCRSSQSLLWKHGYNYLDWYQQKPGQPPKLLIYLDRNRAHGVPDRFTGSGSGTDFTLTISSVQAEDLAVYYCMQSFETPITFGGGTKLEIKR
notes: Tested in bivalent format; also called GDF15_297
Take B1: in test [1], the dissociation constant (Kd) is below 0.01 nM, the koff stood at 1.19e-05 s⁻¹ and the kon is 5.52e+06 M⁻¹ s⁻¹. Further, in test [2], the Kd is below 0.01 nM; the T½ min was 17.7 h and 14.9 h; the koff is 1.09e-05 s⁻¹ and 1.29e-05 s⁻¹; the kon was 5.54e+06 M⁻¹ s⁻¹ and 5.5e+06 M⁻¹ s⁻¹. The molecule also displayed a Kd in test [3] below 0.15 nM.

B2: GDF15_014 (antibody, human IgG1, kappa, V domains shown)
VH: QVQLVQSGAEVKKPGSSVKVSCKASGYTFSSYNIDWVRQAPGQGLEWMGQINPINGLAFYNQKFQGRVTITADESTSTAYMELSSLRSEDTAVYYCAREAITTVGAMDYWGQGTLVTVSS
VL: EIVLTQSPATLSLSPGERATLSCRTSQNVHNYLAWYQQKPGQAPRLLIYDASNRATGIPARFSGSGSGTDFTLTISSLEPEDFAVYYCQQFWSDPYTFGQGTKVEIKR
notes: Tested in bivalent format
With B2, in test [1], the Kd was below 0.01 nM, the koff turned out to be 1.64e-05 s⁻¹ and the kon is 1.89e+06 M⁻¹ s⁻¹. Also, in test [2], the Kd was below 0.01 nM; the T½ min is 10.7 h and 13 h; the koff is 1.79e-05 s⁻¹ and 1.48e-05 s⁻¹; the kon was 1.88e+06 M⁻¹ s⁻¹ and 1.9e+06 M⁻¹ s⁻¹.

B3: GDF15_003 (antibody, human IgG1, kappa, V domains shown)
VH: QVQLVQSGAEVKKPGSSVKVSCKASGYTFTSYNIDWVRQAPGQGLEWMGQINPNNGLAFYNQKFQGRVTITADESTSTAYMELSSLRSEDTAVYYCAREQITTVGAMDYWGQGTLVTVSS
VL: EIVLTQSPATLSLSPGERATLSCRASQSLSSYLAWYQQKPGQAPRLLIYDAKNRADGIPARFSGSGSGTDFTLTISSLEPEDFAVYYCQQFSSDPYTFGQGTKVEIKR
notes: Tested in bivalent format
In test [1], B3 came in with a dissociation constant Kd of 0.0271 nM, a koff of 8.2e-05 s⁻¹ and a kon of 3.03e+06 M⁻¹ s⁻¹. Also, in test [2], the dissociation constant (Kd) was 0.0274 nM and 0.0268 nM; the T½ min is 2.67 h and 2.1 h; the koff was 7.22e-05 s⁻¹ and 9.19e-05 s⁻¹; the kon is 2.64e+06 M⁻¹ s⁻¹ and 3.43e+06 M⁻¹ s⁻¹.

B4: GDF15_021 (antibody, human IgG1, kappa, V domains shown)
VH: QVQLVQSGAEVKKPGSSVKVSCKASGYTFSSYNIDWVRQAPGQGLEWMGGINPINGLIFFNQKFQGRVTITADESTSTAYMELSSLRSEDTAVYYCAREAITTVGAMDHWGQGTLVTVSS
VL: EIVLTQSPATLSLSPGERATLSCRTSENVHSYLAWYQQKPGQAPRLLIYDASNLADGIPARFSGSGSGTDFTLTISSLEPEDFAVYYCQQFWSDPYTFGQGTKVEIKR
notes: Tested in bivalent format
In the case of B4, in test [1], the Kd was 0.153 nM, the koff was 0.000322 s⁻¹ and the kon is 2.09e+06 M⁻¹ s⁻¹. In test [2], the Kd was 0.142 nM and 0.165 nM; the T½ min is 0.661 h and 0.547 h; the koff was 0.000291 s⁻¹ and 0.000352 s⁻¹; the kon was 2.05e+06 M⁻¹ s⁻¹ and 2.14e+06 M⁻¹ s⁻¹. Besides, the Kd in test [3] is below 0.15 nM.

B5: GDF15_004 (antibody, human IgG1, kappa, V domains shown)
VH: QVQLVQSGAEVKKPGSSVKVSCKASGYTFSSYNIDWVRQAPGQGLEWMGQINPNNGLANYAQKFQGRVTITADESTSTAYMELSSLRSEDTAVYYCAREAITTIGAMDYWGQGTLVTVSS
VL: EIVLTQSPATLSLSPGERATLSCRTSESVHSYLAWYQQKPGQAPRLLIYDASTRADGIPARFSGSGSGTDFTLTISSLEPEDFAVYYCQQFWSDPYTFGQGTKVEIKR
notes: Tested in bivalent format
In test [1], B5 returned an equilibrium dissociation constant (Kd) of 0.037 nM, a koff of 7.67e-05 s⁻¹ and a kon of 2.09e+06 M⁻¹ s⁻¹. In test [2], the Kd is 0.0322 nM and 0.0419 nM; the T½ min was 2.7 h and 2.35 h; the off-rate (koff) was 7.14e-05 s⁻¹ and 8.2e-05 s⁻¹; the kon is 2.22e+06 M⁻¹ s⁻¹ and 1.96e+06 M⁻¹ s⁻¹.

B6: GDF15_015 (antibody, human IgG1, kappa, V domains shown)
VH: QVQLVQSGAEVKKPGSSVKVSCKASGYTFSDYNMDWVRQAPGQGLEWMGQINPNNGLAFYNQKFQGRVTITADESTSTAYMELSSLRSEDTAVYYCAREAITTVGATDYWGQGTLVTVSS
VL: EIVLTQSPATLSLSPGERATLSCRTSQNVHSYLAWYQQKPGQAPRLLIYDASNLADGIPARFSGSGSGTDFTLTISSLEPEDFAVYYCQQFSNDPWTFGQGTKVEIKR
notes: Tested in bivalent format
In test [1], B6 had a Kd of 0.0584 nM, a koff of 0.000101 s⁻¹ and a kon of 1.74e+06 M⁻¹ s⁻¹. Besides, in test [2], the Kd was 0.0594 nM and 0.0573 nM; the T½ min was 1.94 h and 1.86 h; the koff is 9.93e-05 s⁻¹ and 0.000104 s⁻¹; the kon is 1.67e+06 M⁻¹ s⁻¹ and 1.81e+06 M⁻¹ s⁻¹.

B7: GDF15_010 (antibody, human IgG1, kappa, V domains shown)
VH: QVQLVQSGAEVKKPGSSVKVSCKASGYTFSDYNIDWVRQAPGQGLEWMGGINPNNGLAFFNQKFQGRVTITADESTSTAYMELSSLRSEDTAVYYCAREAITTVGAMDYWGQGTLVTVSS
VL: EIVLTQSPATLSLSPGERATLSCRTSQSLHSYLAWYQQKPGQAPRLLIYDASNRATGIPARFSGSGSGTDFTLTISSLEPEDFAVYYCQQFWNDPWTFGQGTKVEIKR
notes: Tested in bivalent format
As for B7, in test [1], the Kd is 0.0157 nM, the koff turned out to be 1.63e-05 s⁻¹ and the kon was found to be 1.1e+06 M⁻¹ s⁻¹. Further, in test [2], the Kd is 0.0113 nM and 0.0201 nM; the T½ min was 13.1 h and 10.8 h; the koff was 1.47e-05 s⁻¹ and 1.78e-05 s⁻¹; the kon is 1.31e+06 M⁻¹ s⁻¹ and 885000 M⁻¹ s⁻¹.

B8: GDF15_013 (antibody, human IgG1, kappa, V domains shown)
VH: QVQLVQSGAEVKKPGSSVKVSCKASGYTFSDYNMDWVRQAPGQGLEWMGGINPNNGLAFYNQKFQGRVTITADESTSTAYMELSSLRSEDTAVYYCAREAITTVGAMDYWGQGTLVTVSS
VL: EIVLTQSPATLSLSPGERATLSCRTSESVHSYLAWYQQKPGQAPRLLIYDASNRATGIPARFSGSGSGTDFTLTISSLEPEDFAVYYCQQFWNWPWTFGQGTKVEIKR
notes: Tested in bivalent format
In test [1], B8 yielded a Kd of 0.018 nM, a koff of 7.08e-05 s⁻¹ and a kon of 4.86e+06 M⁻¹ s⁻¹. Also, in test [2], the Kd was 0.0275 nM and 0.0103 nM; the T½ min was 2.89 h and 2.56 h; the koff was 6.66e-05 s⁻¹ and 7.51e-05 s⁻¹.

B9: GDF15_022 (antibody, human IgG1, kappa, V domains shown)
VH: QVQLVQSGAEVKKPGSSVKVSCKASGYTFSDYNIDWVRQAPGQGLEWMGQINPNNGLIFFNQKFQGRVTITADESTSTAYMELSSLRSEDTAVYYCAREVITTVGAMDYWGQGTLVTVSS
VL: EIVLTQSPATLSLSPGERATLSCRTSQSVHSYLAWYQQKPGQAPRLLIYDAKTRADGIPARFSGSGSGTDFTLTISSLEPEDFAVYYCQQFSSDPYTFGQGTKVEIKR
notes: Tested in bivalent format
In test [1], B9 came in with a Kd of 0.0156 nM, a koff of 1.61e-05 s⁻¹ and a kon of 1.08e+06 M⁻¹ s⁻¹. Besides, in test [2], the Kd is 0.0132 nM and 0.0179 nM; the T½ min was 10.9 h and 13.3 h; the off-rate constant (koff) is 1.77e-05 s⁻¹ and 1.45e-05 s⁻¹; the kon is 1.34e+06 M⁻¹ s⁻¹ and 813000 M⁻¹ s⁻¹. In test [3], this molecule came in with a Kd below 0.15 nM.

B10: GDF15_017 (antibody, human IgG1, kappa, V domains shown)
VH: QVQLVQSGAEVKKPGSSVKVSCKASGYTFTDYNIDWVRQAPGQGLEWMGQINPNNGLAFYNQKFQGRVTITADESTSTAYMELSSLRSEDNAVYYCAREAITTVGAMDYWGQGTLVTVSS
VL: EIVLTQSPATLSLSPGERATLSCRTSQSVHSYLAWYQQKPGQAPRLLIYDAKTRATGIPARFSGSGSGTDFTLTISSLEPEDFAVYYCQQFSSDPYTFGQGTKVEIKR
notes: Tested in bivalent format
In test [1], B10 returned a Kd of 0.0349 nM, a koff of 8.42e-05 s⁻¹ and a kon of 2.57e+06 M⁻¹ s⁻¹. Further, in test [2], the Kd was 0.0267 nM and 0.043 nM; the T½ min is 2.35 h and 2.22 h; the koff was 8.18e-05 s⁻¹ and 8.66e-05 s⁻¹; the kon was 1.9e+06 M⁻¹ s⁻¹ and 3.24e+06 M⁻¹ s⁻¹.

B11: GDF15_020 (antibody, human IgG1, kappa, V domains shown)
VH: QVQLVQSGAEVKKPGSSVKVSCKASGYTFSDYNMDWVRQAPGQGLEWMGQINPNNGLANYNQKFQGRVTITADESTSTAYMELSSLRSEDTAVYYCAREAITTVGAMDYWGQGTLVTVSS
VL: EIVLTQSPATLSLSPGERATLSCRASQNLHSYLAWYQQKPGQAPRLLIYDASTRADGIPARFSGSGSGTDFTLTISSLEPEDFAVYYCQQFWSDPYTFGQGTKVEIKR
notes: Tested in bivalent format
With B11, in test [1], the affinity, expressed as Kd, was 0.131 nM; the koff worked out at 0.000104 s⁻¹; the kon was 829000 M⁻¹ s⁻¹. In test [2], the Kd was 0.0974 nM and 0.165 nM; the T½ min is 2.03 h and 1.7 h; the koff is 9.46e-05 s⁻¹ and 0.000113 s⁻¹; the kon was 972000 M⁻¹ s⁻¹ and 686000 M⁻¹ s⁻¹. In test [3], the Kd is below 0.15 nM.
